{
  "source": "paper PMC3126750",
  "molecules": {"B1": {"name": "Rad23 (natural protein)", "chain": "MVSLTFKNFKKEKVPLDLEPSNTILETKTKLAQSISCEESQIKLIYSGKVLQDSKTVSECGLKDGDQVVFMVSQKKSTKTKVTEPPIAPESATTPGRENSTEASPSTDASAAPAATAPEGSQPQEEQTATTERTESASTPGFVVGTERNETIERIMEMGYQREEVERALRAAFNNPDRAVEYLLMGIPENLRQPEPQQQTAAAAEQPSTAATTAEQPAEDDLFAQAAQGGNASSGALGTTGGATDAAQGGPPGSIGLTVEDLLSLRQVVSGNPEALAPLLENISARYPQLREHIMANPEVFVSMLLEAVGDNMQDVMEGADDMVEGEDIEVTGEAAAAGLGQGEGEGSFQVDYTPEDDQAISRLCELGFERDLVIQVYFACDKNEEAAANILFSDHAD"}},
  "key": {"Ubp6": {"biological_target": "Ubp6 (UniProt P43593)", "test": "anti-Flag affinity purification of 26S proteasome, immunoblot densitometry", "details": "no detergent in binding; normalized to Rpn11FLAG; parent: est. 100; read off a plot"}, "Dsk2": {"biological_target": "Dsk2 (UniProt P48510)", "sequence (P48510 whole entry, looked up)": "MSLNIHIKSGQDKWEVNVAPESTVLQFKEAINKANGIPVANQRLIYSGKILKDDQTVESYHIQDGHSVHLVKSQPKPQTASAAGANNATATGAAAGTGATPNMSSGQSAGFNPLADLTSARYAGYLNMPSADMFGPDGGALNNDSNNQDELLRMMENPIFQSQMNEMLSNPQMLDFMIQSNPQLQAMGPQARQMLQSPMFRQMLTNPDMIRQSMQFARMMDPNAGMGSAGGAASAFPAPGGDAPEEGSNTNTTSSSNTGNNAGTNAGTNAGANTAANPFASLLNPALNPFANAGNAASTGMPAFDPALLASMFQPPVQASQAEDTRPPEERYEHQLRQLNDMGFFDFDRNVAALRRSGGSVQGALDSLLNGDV", "test": "anti-Flag affinity purification of 26S proteasome, immunoblot densitometry", "details": "no detergent in binding; normalized to Rpn11FLAG; parent: est. 100; read off a plot"}, "Ddi1": {"biological_target": "Ddi1 (UniProt P40087)", "sequence (P40087 whole entry, looked up)": "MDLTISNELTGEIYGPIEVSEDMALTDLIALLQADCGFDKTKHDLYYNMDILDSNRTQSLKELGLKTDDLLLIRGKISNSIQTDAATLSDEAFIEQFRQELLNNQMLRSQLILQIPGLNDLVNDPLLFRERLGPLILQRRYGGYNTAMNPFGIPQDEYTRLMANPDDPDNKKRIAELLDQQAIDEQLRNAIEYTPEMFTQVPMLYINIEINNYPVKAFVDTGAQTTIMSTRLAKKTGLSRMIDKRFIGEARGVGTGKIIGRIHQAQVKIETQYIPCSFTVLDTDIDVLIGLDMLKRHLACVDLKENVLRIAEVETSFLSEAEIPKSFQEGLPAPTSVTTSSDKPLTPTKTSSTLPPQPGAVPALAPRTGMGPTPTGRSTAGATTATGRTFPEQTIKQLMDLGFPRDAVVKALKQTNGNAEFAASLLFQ", "test": "anti-Flag affinity purification of 26S proteasome, immunoblot densitometry", "details": "no detergent in binding; normalized to Rpn11FLAG; parent: est. 100; read off a plot"}, "Rad23": {"biological_target": "Rad23 (UniProt P32628)", "test": "anti-Flag affinity purification of 26S proteasome, immunoblot densitometry", "details": "no detergent in binding; normalized to Rpn11FLAG; parent: est. 100; read off a plot"}, "[1]": {"biological_target": "26S proteasome from rpn13Δ cells (Rpn11-Flag) (S. cerevisiae) (UniProt P38764)", "sequence (P38764 whole entry, looked up, stated change not applied)": "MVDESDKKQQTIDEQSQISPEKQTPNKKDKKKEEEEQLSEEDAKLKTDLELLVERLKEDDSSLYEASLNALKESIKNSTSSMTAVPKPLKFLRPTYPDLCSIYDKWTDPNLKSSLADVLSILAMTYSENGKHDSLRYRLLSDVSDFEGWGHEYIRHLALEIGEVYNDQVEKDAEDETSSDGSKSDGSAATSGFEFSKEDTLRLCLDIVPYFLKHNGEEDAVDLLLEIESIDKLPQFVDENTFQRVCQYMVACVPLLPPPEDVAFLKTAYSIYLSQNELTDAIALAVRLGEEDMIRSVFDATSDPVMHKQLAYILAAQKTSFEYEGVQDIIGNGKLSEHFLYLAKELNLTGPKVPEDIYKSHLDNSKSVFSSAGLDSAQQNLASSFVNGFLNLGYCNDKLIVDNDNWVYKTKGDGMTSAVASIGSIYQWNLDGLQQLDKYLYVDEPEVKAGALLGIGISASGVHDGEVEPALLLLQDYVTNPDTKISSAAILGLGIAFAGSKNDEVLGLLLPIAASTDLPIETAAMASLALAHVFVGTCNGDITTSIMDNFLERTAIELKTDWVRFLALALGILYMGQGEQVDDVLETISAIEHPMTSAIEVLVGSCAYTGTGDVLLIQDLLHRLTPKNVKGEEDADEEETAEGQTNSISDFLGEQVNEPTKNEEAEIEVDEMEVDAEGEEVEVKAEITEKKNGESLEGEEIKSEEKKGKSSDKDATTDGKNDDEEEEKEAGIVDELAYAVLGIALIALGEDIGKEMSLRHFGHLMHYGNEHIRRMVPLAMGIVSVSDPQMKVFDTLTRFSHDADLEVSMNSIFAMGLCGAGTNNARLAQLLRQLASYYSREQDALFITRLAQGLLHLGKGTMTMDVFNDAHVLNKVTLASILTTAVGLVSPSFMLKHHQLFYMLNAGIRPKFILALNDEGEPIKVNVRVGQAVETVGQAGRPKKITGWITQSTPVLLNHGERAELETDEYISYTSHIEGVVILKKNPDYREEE", "test": "affinity purification with mass spectrometry; SILAC: rpn13Δ cells heavy, rpn13Δ rpn1-D517A cells light, mixed 1:1 before lysis; proteasomes purified on anti-Flag resin, eluted in 8 M urea"}},
  "data": [
    {"molecule": "26S proteasome from rpn13Δ cells (Rpn11-Flag) (from UniProt P38764;P43588) D517A", "values": [
      {"measurement": "percent of parent (% Protein Relative to WT)", "setting": "Ubp6", "value": 110},
      {"measurement": "percent of parent (% Protein Relative to WT)", "setting": "Dsk2", "value": 61},
      {"measurement": "percent of parent (% Protein Relative to WT)", "setting": "Ddi1", "value": 29},
      {"measurement": "percent of parent (% Protein Relative to WT)", "setting": "Rad23", "value": 76}
    ]},
    {"molecule": "26S proteasome from rpn13Δ cells (Rpn11-Flag) (from UniProt P38764;P43588) K484A", "values": [
      {"measurement": "percent of parent (% Protein Relative to WT)", "setting": "Ubp6", "value": 110},
      {"measurement": "percent of parent (% Protein Relative to WT)", "setting": "Dsk2", "value": 86},
      {"measurement": "percent of parent (% Protein Relative to WT)", "setting": "Ddi1", "value": 80},
      {"measurement": "percent of parent (% Protein Relative to WT)", "setting": "Rad23", "value": 95}
    ]},
    {"molecule": "Ubp6 (from UniProt P43593 1-499) (enzyme)", "values": [
      {"measurement": "SILAC H/L ratio (rpn13Δ proteasomes, heavy, over rpn13Δ rpn1-D517A proteasomes, light)", "setting": "[1]", "value": 0.98}
    ]},
    {"molecule": "B1", "values": [
      {"measurement": "SILAC H/L ratio (rpn13Δ proteasomes, heavy, over rpn13Δ rpn1-D517A proteasomes, light)", "setting": "[1]", "value": 0.9}
    ]}
  ]
}
